Laboratory results reported in PMC10514136, “Peptide-conjugated antimiRs improve myotonic dystrophy type 1 phenotypes by promoting endogenous MBNL1 expression” (Molecular Therapy. Nucleic Acids, 2023).

Key:
DM1 cells = test: Cell growth inhibition of DM1 cells, gymnosis vs transfection at EC50; type: cell-based, human; settings: at the EC50 concentration
Experimental: Immortalized MyoD-inducible (doxycycline) DM1 and control fibroblasts were kindly provided by Dr Furling (Institute of Myology, Paris, France).[38] For the activity assay, cells were seeded in 6-well plates at a density of 8 × 10^4 cells/well and grown in DMEM with 4.5 g/L glucose, 1% P/S, and 10% FBS (Sigma, St. Louis, MO). To transdifferentiate fibroblasts into myoblasts by inducing MyoD expression, the cells were plated in muscle differentiation medium containing DMEM with 4.5 g L^−1 glucose, 1% P/S, 2% horse serum, 1% apo-transferrin (10 mg mL^−1), 0.1% insulin (10 mg mL^−1), and 0.02% doxycycline (10 mg mL^−1). In all cases, the cells were grown at 37°C in a humidified atmosphere containing 5% CO2. Transdifferentiation was induced at day 0, and transfection was performed by lipofection with X-tremeGENE HP (Roche, Basel, Switzerland) 24 h later, with antimiRs and test compounds in the cell medium at different concentrations (from 0.4 nM to 5 μM). […]
Cells seeded at 10^5 cells/mL in 96-well plates were transfected 24 h later with antimiRs as described previously.[20] After 96 h, cell proliferation was measured using the CellTiter 96 AQueous Non-Radioactive Cell Proliferation Assay (Promega, Madison, WI). Absorbance levels were determined using an Infinite M200 PRO plate reader (Tecan, Männedorf, Switzerland) and the TC50 was calculated using non-linear least-squares regression.

HSALR mice = test: Electromyography, myotonia grade; type: in vivo, mouse; settings: 9.2 mg/kg (mean) i.v. every 2 weeks x3, 5-point scale, quadriceps of both hind limbs
Text: Mouse handling and experimental procedures followed the European law regarding laboratory animal care and experimentation (2003/65/C.E.) and were approved by Conselleria de Agricultura, […] (reference no. A1539961490857). We used homozygous transgenic HSA^LR (line 20 b) mice,[90] which were kindly provided by Dr Thornton (Rochester, NY) and were housed and bred in our animal facility. […] The mice were randomly allocated to the different treatments as follows: in each cage, each mouse was ear-marked as it was taken out, and each mouse was then assigned to a different treatment. Animals were injected biweekly intravenously with 150 μL of 1× PBS vehicle (controls; […] Mice were sacrificed 45 days after the first injection and the tissues of interest were frozen in liquid nitrogen for the molecular and histological assays. All the mice used in this study ranged from 5 to 5.5 months of age and all were males. Electromyography was performed before the treatment, at the halfway point and time of sacrifice under general anesthesia, as described previously.[18] The determination was performed blindly to eliminate bias.

Row | Substance | toxicity (cell growth inhibition), gymnosis compared with transfection (DM1 cells) | myotonia (electromyography), change at day 45 (HSALR mice)
1 | 9b2KC-23b (antisense GGUAAUCCCUGGCAAUGUGAU; all phosphorodiamidate morpholino (PMO), T or U not given here; Pip9b2KC peptide conjugated) | toxicity was significantly reduced | 
2 | TCTTACCTCAGTTACAATTTA-Pip9b2 [Scramble, reference compound] |  | myotonia remained unchanged
